We go through 12 molecules from article PMC4367269, “Probing the Acceptor Active Site Organization of the Human Recombinant β1,4-Galactosyltransferase 7 and Design of Xyloside-based Inhibitors” (The Journal of Biological Chemistry, 2015).

By IC50 is commonly meant the concentration at which inhibition is half-maximal. A low value points to higher potency. By Ki is commonly meant the dissociation constant of the complex between target and ligand, obtained from inhibition or displacement. Read a low Ki as higher affinity. By Km is commonly meant the concentration of substrate that gives half-maximal velocity. As usually defined, the kcat is the maximal rate divided by the concentration of active sites. By kcat/Km is commonly meant the second-order rate constant that governs catalysis at low substrate concentration.

The target in series [1] is T1, hβ4GalT7 (GST-β4GalT7) (Homo sapiens, UniProt Q9UBV7).
T1 construct: gene B4GALT7; truncated soluble form lacking the first 60 N-terminal amino acids (transmembrane domain and part of stem), GST fusion (tag kept), pET-41a(+), E. coli BL21(DE3), glutathione-Sepharose purified
T1 sequence (Q9UBV7 61-327): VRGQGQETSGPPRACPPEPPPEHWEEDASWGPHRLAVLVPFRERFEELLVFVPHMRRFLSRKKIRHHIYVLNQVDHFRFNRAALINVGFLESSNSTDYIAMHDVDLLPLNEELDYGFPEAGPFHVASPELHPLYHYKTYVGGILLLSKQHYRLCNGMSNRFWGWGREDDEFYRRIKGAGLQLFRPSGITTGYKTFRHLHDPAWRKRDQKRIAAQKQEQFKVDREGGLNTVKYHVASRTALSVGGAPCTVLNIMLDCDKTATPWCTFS
The series can be described thus: galactosyltransferase competition assay, HPLC-UV. Format: biochemical. Particulars: 0.5 mM 4-MUX, 1 mM UDP-Gal, 10 mM MnCl2, 100 mM sodium cacodylate pH 7.0, 37 °C; IC50 and Ki not determined.

Series [2] concerns the target T1, hβ4GalT7 (GST-β4GalT7). The series can be described thus: galactosyltransferase competition assay, HPLC-UV. Format: biochemical. The text has this: galactosyltransferase competition assay, HPLC-UV on hβ4GalT7 (GST-β4GalT7)
Substrate in series [3]: Cc1cc(=O)oc2cc(O[C@@H]3OC[C@@H](O)[C@H](O)[C@H]3O)ccc12
Nature of the series: galactosyltransferase assay, HPLC-UV. Format: biochemical, Homo sapiens. Particulars: apparent, fixed 1 mM UDP-Gal, 10 mM MnCl2, 100 mM sodium cacodylate pH 7.0, 37 °C. An excerpt:
(§1) galactosyltransferase assay, HPLC-UV on hβ4GalT7 (GST-β4GalT7)

Substrate in series [4]: O=c1ccn([C@@H]2O[C@H](COP(=O)(O)OP(=O)(O)O[C@H]3O[C@H](CO)[C@H](O)[C@H](O)[C@H]3O)[C@@H](O)[C@H]2O)c(=O)[nH]1
The series can be described thus: galactosyltransferase assay, HPLC-UV. Format: biochemical, Homo sapiens. Particulars: apparent, fixed 5 mM 4-MUX, 10 mM MnCl2, 100 mM sodium cacodylate pH 7.0, 37 °C.
Source text: as §1

Consider `O[C@H]1[C@H](Oc2ccc3ccccc3c2)OCC[C@@H]1O` [4H-Xyl-NP, Naphthyl-4-deoxy-β-D-xylopyranoside], for which the “% decrease of activity at the highest concentration (5 mM)” value in series [1] is < 25%.

In series [2], `Cc1cc(=O)oc2cc(O[C@@H]3OCC[C@H](O)[C@H]3O)ccc12` [4H-Xyl-MU, 4-Methylumbelliferyl-4-deoxy-β-D-xylopyranoside] returned an IC50 of 1280 ± 220 µM and a Ki of 530 ± 100 µM.

B1: hβ4GalT7 (GST-β4GalT7) (Homo sapiens; H195R) (protein)
chain: VRGQGQETSGPPRACPPEPPPEHWEEDASWGPHRLAVLVPFRERFEELLVFVPHMRRFLSRKKIRHHIYVLNQVDHFRFNRAALINVGFLESSNSTDYIAMHDVDLLPLNEELDYGFPEAGPFHVASPELHPLYRYKTYVGGILLLSKQHYRLCNGMSNRFWGWGREDDEFYRRIKGAGLQLFRPSGITTGYKTFRHLHDPAWRKRDQKRIAAQKQEQFKVDREGGLNTVKYHVASRTALSVGGAPCTVLNIMLDCDKTATPWCTFS
notes: truncated soluble form lacking the first 60 N-terminal amino acids (transmembrane domain and part of stem), GST fusion (tag kept), pET-41a(+), E. coli BL21(DE3), glutathione-Sepharose purified
As to B1, in series [3], the Michaelis-Menten constant (Km) came to 350 ± 30 µM, the kcat is 1.49 ± 0.0217 s⁻¹ and the kcat/Km was determined as 4030 M⁻¹ s⁻¹. Besides, in series [4], the Km was 320 ± 20 µM, the kcat was 1.49 ± 0.0217 s⁻¹ and the kcat/Km was 4920 M⁻¹ s⁻¹.

B2: hβ4GalT7 (GST-β4GalT7) (Homo sapiens; R226K) (protein)
chain: VRGQGQETSGPPRACPPEPPPEHWEEDASWGPHRLAVLVPFRERFEELLVFVPHMRRFLSRKKIRHHIYVLNQVDHFRFNRAALINVGFLESSNSTDYIAMHDVDLLPLNEELDYGFPEAGPFHVASPELHPLYHYKTYVGGILLLSKQHYRLCNGMSNRFWGWGKEDDEFYRRIKGAGLQLFRPSGITTGYKTFRHLHDPAWRKRDQKRIAAQKQEQFKVDREGGLNTVKYHVASRTALSVGGAPCTVLNIMLDCDKTATPWCTFS
notes: as for B1
Turning to B2, in series [3], the Michaelis-Menten constant (Km) came out at 460 ± 10 µM, the kcat came to 1.35 ± 0.0483 s⁻¹ and the kcat/Km came to 2920 M⁻¹ s⁻¹. Also, in series [4], the Km came out at 290 ± 20 µM, the kcat stood at 1.35 ± 0.0483 s⁻¹ and the kcat/Km came out at 4700 M⁻¹ s⁻¹.

B3: hβ4GalT7 (GST-β4GalT7) (Homo sapiens; Y196F) (protein)
chain: VRGQGQETSGPPRACPPEPPPEHWEEDASWGPHRLAVLVPFRERFEELLVFVPHMRRFLSRKKIRHHIYVLNQVDHFRFNRAALINVGFLESSNSTDYIAMHDVDLLPLNEELDYGFPEAGPFHVASPELHPLYHFKTYVGGILLLSKQHYRLCNGMSNRFWGWGREDDEFYRRIKGAGLQLFRPSGITTGYKTFRHLHDPAWRKRDQKRIAAQKQEQFKVDREGGLNTVKYHVASRTALSVGGAPCTVLNIMLDCDKTATPWCTFS
notes: as for B1
On to B3, for which, in series [3], the Km amounted to 1060 ± 60 µM, the turnover number (kcat) was 0.5 ± 0.0183 s⁻¹ and the kcat/Km amounted to 467 M⁻¹ s⁻¹. For the same molecule, in series [4], the Km is 340 ± 60 µM, the kcat amounted to 0.5 ± 0.0183 s⁻¹ and the kcat/Km is 1470 M⁻¹ s⁻¹.

B4: hβ4GalT7 (GST-β4GalT7) (Homo sapiens) (protein)
chain: VRGQGQETSGPPRACPPEPPPEHWEEDASWGPHRLAVLVPFRERFEELLVFVPHMRRFLSRKKIRHHIYVLNQVDHFRFNRAALINVGFLESSNSTDYIAMHDVDLLPLNEELDYGFPEAGPFHVASPELHPLYHYKTYVGGILLLSKQHYRLCNGMSNRFWGWGREDDEFYRRIKGAGLQLFRPSGITTGYKTFRHLHDPAWRKRDQKRIAAQKQEQFKVDREGGLNTVKYHVASRTALSVGGAPCTVLNIMLDCDKTATPWCTFS
notes: as for B1
In the case of B4, in series [3], the Km worked out at 350 ± 20 µM, the kcat was 1.51 ± 0.0383 s⁻¹ and the catalytic efficiency (kcat/Km) amounted to 4170 M⁻¹ s⁻¹. In addition, in series [4], the Km stood at 220 ± 20 µM, the kcat amounted to 1.51 ± 0.0383 s⁻¹ and the kcat/Km was found to be 7080 M⁻¹ s⁻¹.

B5: hβ4GalT7 (GST-β4GalT7) (Homo sapiens; R270K) (protein)
chain: VRGQGQETSGPPRACPPEPPPEHWEEDASWGPHRLAVLVPFRERFEELLVFVPHMRRFLSRKKIRHHIYVLNQVDHFRFNRAALINVGFLESSNSTDYIAMHDVDLLPLNEELDYGFPEAGPFHVASPELHPLYHYKTYVGGILLLSKQHYRLCNGMSNRFWGWGREDDEFYRRIKGAGLQLFRPSGITTGYKTFRHLHDPAWRKRDQKKIAAQKQEQFKVDREGGLNTVKYHVASRTALSVGGAPCTVLNIMLDCDKTATPWCTFS
notes: as for B1
As to B5, in series [3], the Km amounted to 540 ± 70 µM, the kcat came to 0.812 ± 0.025 s⁻¹ and the kcat/Km stood at 1420 M⁻¹ s⁻¹. In series [4], the Km was found to be 370 ± 20 µM, the kcat amounted to 0.812 ± 0.025 s⁻¹ and the kcat/Km stood at 2320 M⁻¹ s⁻¹.

B6: hβ4GalT7 (GST-β4GalT7) (Homo sapiens; Y199F) (protein)
chain: VRGQGQETSGPPRACPPEPPPEHWEEDASWGPHRLAVLVPFRERFEELLVFVPHMRRFLSRKKIRHHIYVLNQVDHFRFNRAALINVGFLESSNSTDYIAMHDVDLLPLNEELDYGFPEAGPFHVASPELHPLYHYKTFVGGILLLSKQHYRLCNGMSNRFWGWGREDDEFYRRIKGAGLQLFRPSGITTGYKTFRHLHDPAWRKRDQKRIAAQKQEQFKVDREGGLNTVKYHVASRTALSVGGAPCTVLNIMLDCDKTATPWCTFS
notes: as for B1
In the case of B6, in series [3], the Km amounted to 590 ± 60 µM, the kcat is 1.2 ± 0.0967 s⁻¹ and the specificity constant (kcat/Km) was 1880 M⁻¹ s⁻¹. Further, in series [4], the Michaelis constant (Km) came out at 320 ± 20 µM, the kcat is 1.2 ± 0.0967 s⁻¹ and the specificity constant (kcat/Km) was 4050 M⁻¹ s⁻¹.

B7: hβ4GalT7 (GST-β4GalT7) (Homo sapiens; H195A) (protein)
chain: VRGQGQETSGPPRACPPEPPPEHWEEDASWGPHRLAVLVPFRERFEELLVFVPHMRRFLSRKKIRHHIYVLNQVDHFRFNRAALINVGFLESSNSTDYIAMHDVDLLPLNEELDYGFPEAGPFHVASPELHPLYAYKTYVGGILLLSKQHYRLCNGMSNRFWGWGREDDEFYRRIKGAGLQLFRPSGITTGYKTFRHLHDPAWRKRDQKRIAAQKQEQFKVDREGGLNTVKYHVASRTALSVGGAPCTVLNIMLDCDKTATPWCTFS
notes: as for B1
With B7, in series [3], the Km came out at 640 ± 20 µM, the kcat is 1.932 ± 0.162 s⁻¹ and the kcat/Km stood at 3000 M⁻¹ s⁻¹. In series [4], the Km was found to be 400 ± 20 µM, the kcat worked out at 1.932 ± 0.162 s⁻¹ and the kcat/Km came out at 4850 M⁻¹ s⁻¹.

B8: hβ4GalT7 (GST-β4GalT7) (Homo sapiens; H195Q) (protein)
chain: VRGQGQETSGPPRACPPEPPPEHWEEDASWGPHRLAVLVPFRERFEELLVFVPHMRRFLSRKKIRHHIYVLNQVDHFRFNRAALINVGFLESSNSTDYIAMHDVDLLPLNEELDYGFPEAGPFHVASPELHPLYQYKTYVGGILLLSKQHYRLCNGMSNRFWGWGREDDEFYRRIKGAGLQLFRPSGITTGYKTFRHLHDPAWRKRDQKRIAAQKQEQFKVDREGGLNTVKYHVASRTALSVGGAPCTVLNIMLDCDKTATPWCTFS
notes: as for B1
As to B8, in series [3], the Km turned out to be 550 ± 20 µM, the kcat stood at 1.62 ± 0.04 s⁻¹ and the kcat/Km was determined as 2950 M⁻¹ s⁻¹. Moreover, in series [4], the Michaelis-Menten constant (Km) is 330 ± 20 µM, the kcat is 1.62 ± 0.04 s⁻¹ and the kcat/Km was found to be 4920 M⁻¹ s⁻¹.

B9: hβ4GalT7 (GST-β4GalT7) (Homo sapiens; R226A) (protein)
chain: VRGQGQETSGPPRACPPEPPPEHWEEDASWGPHRLAVLVPFRERFEELLVFVPHMRRFLSRKKIRHHIYVLNQVDHFRFNRAALINVGFLESSNSTDYIAMHDVDLLPLNEELDYGFPEAGPFHVASPELHPLYHYKTYVGGILLLSKQHYRLCNGMSNRFWGWGAEDDEFYRRIKGAGLQLFRPSGITTGYKTFRHLHDPAWRKRDQKRIAAQKQEQFKVDREGGLNTVKYHVASRTALSVGGAPCTVLNIMLDCDKTATPWCTFS
notes: as for B1
Regarding B9, in series [3], the Km amounted to 440 ± 50 µM, the kcat turned out to be 0.893 ± 0.0333 s⁻¹ and the kcat/Km was 1870 M⁻¹ s⁻¹. In series [4], the Km came to 340 ± 30 µM, the kcat came out at 0.893 ± 0.0333 s⁻¹ and the kcat/Km came to 2850 M⁻¹ s⁻¹.

B10: hβ4GalT7 (GST-β4GalT7) (Homo sapiens; R270A) (protein)
chain: VRGQGQETSGPPRACPPEPPPEHWEEDASWGPHRLAVLVPFRERFEELLVFVPHMRRFLSRKKIRHHIYVLNQVDHFRFNRAALINVGFLESSNSTDYIAMHDVDLLPLNEELDYGFPEAGPFHVASPELHPLYHYKTYVGGILLLSKQHYRLCNGMSNRFWGWGREDDEFYRRIKGAGLQLFRPSGITTGYKTFRHLHDPAWRKRDQKAIAAQKQEQFKVDREGGLNTVKYHVASRTALSVGGAPCTVLNIMLDCDKTATPWCTFS
notes: as for B1
For B10, in series [3], the Km was 600 ± 20 µM, the catalytic constant (kcat) came out at 0.773 ± 0.0033 s⁻¹ and the kcat/Km turned out to be 1200 M⁻¹ s⁻¹. In series [4], the Km turned out to be 270 ± 10 µM, the kcat came out at 0.773 ± 0.0033 s⁻¹ and the kcat/Km stood at 3070 M⁻¹ s⁻¹.
